This is an account of results in WO2016167227A1.

The target of this experiment is human-derived insoluble fibrin (human) (UniProt P02671). As to the kind of experiment: ELISA, peroxidase-labelled antibody on fibrin plate; 0.1 μg/mL of 443-2 gave about the signal of 10 μg/mL of the reference.
UniProt P02671, sequence (P02671 36-629 limits assumed, chain 1 of 3): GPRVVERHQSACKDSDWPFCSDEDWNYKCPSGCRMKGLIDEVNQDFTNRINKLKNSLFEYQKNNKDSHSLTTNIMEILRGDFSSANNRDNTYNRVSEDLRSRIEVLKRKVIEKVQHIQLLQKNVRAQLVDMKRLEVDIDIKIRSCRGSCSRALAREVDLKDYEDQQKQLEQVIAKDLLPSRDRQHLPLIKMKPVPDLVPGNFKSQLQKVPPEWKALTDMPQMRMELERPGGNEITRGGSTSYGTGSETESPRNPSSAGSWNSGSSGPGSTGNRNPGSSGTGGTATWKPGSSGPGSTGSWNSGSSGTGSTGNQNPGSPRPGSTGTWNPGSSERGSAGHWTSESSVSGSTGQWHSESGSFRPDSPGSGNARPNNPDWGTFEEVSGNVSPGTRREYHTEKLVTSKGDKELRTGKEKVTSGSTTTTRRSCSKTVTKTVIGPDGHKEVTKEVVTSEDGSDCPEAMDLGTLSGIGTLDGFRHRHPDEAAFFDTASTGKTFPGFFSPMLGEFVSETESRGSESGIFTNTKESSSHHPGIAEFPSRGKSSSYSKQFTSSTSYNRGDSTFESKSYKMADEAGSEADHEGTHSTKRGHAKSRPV
UniProt P02671, sequence (chain, as listed by the source limits assumed, chain 2 of 3): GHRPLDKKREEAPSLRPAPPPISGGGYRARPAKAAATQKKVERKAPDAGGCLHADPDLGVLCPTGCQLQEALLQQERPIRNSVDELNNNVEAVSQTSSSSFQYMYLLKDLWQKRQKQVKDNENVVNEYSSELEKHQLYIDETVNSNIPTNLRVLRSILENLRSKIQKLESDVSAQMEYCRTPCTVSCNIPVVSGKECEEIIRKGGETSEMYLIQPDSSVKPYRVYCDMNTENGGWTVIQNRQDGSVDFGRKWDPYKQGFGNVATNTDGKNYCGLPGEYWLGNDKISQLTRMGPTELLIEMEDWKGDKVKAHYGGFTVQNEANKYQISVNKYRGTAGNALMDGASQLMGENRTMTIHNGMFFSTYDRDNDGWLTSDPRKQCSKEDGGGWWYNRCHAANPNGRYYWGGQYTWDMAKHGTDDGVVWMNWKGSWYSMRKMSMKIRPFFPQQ
UniProt P02671, sequence (chain, as listed by the source limits assumed, chain 3 of 3): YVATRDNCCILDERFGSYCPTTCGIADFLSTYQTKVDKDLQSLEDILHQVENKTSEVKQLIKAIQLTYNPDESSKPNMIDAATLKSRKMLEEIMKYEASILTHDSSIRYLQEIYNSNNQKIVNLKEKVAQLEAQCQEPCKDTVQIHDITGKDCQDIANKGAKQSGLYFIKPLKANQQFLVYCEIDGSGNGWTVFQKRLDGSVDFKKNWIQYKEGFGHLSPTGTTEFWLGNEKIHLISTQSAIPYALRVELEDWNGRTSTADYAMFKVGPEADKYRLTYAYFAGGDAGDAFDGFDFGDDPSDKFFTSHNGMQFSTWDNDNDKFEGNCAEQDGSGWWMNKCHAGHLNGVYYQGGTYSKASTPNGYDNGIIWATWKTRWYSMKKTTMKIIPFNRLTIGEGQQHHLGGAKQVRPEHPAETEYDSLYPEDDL

B1: 443-2 antibody (antibody, V domains shown)
VH: QIQLVQSGPELKKPGESVKISCKASGYTFTDYAMNWVKQAPGNGLKWMGWINTQTGKPTYADDFKQRFVFSLETSATTAYLQINNLNIEDTATYFCTRLMDAWGQGASVTVSS
VL: DIVMTQSPSSLAVSAGETVTINCKSSQSLLSSGNQKNYLAWYQQKPGQSPKLLIYLASTRESGVPDRLIGSGSGTDFTLTISSMQAEDLAIYYCQQYYETPHTFGAGTKLELKR
With B1, the fold affinity for insoluble fibrin against the 102-10 antibody (printed 102-12) was 100 times.
